Test results taken from the supplement of paper PMC5998384.

Columns and labels:
[1] = system: HeLa Kyoto; test: solubility change mitosis vs G1/S (difference of NP-40 vs SDS log2 ratios) (log2 ratio difference); higher = more soluble in mitosis
[2] = system: HeLa Kyoto; test: solubility in G1/S (NP-40 vs SDS abundance) (log2 ratio); higher = more soluble; details: cell cycle stage: G1/S
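For solubility change mitosis vs G1/S (difference of NP-40 vs SDS log2 ratios) in this document: synchronized HeLa Kyoto cells (double thymidine block for G1/S, nocodazole release for mitosis), protein amounts in NP-40 versus SDS lysates quantified by mass spectrometry, three biological replicates.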
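For solubility in G1/S (NP-40 vs SDS abundance) in this document: HeLa Kyoto cells arrested at G1/S by double thymidine block, proteins quantified by TMT10plex mass spectrometry in mild NP-40 versus SDS extracts, three biological replicates.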

| Substance | solubility change mitosis (log2) [1] | solubility in G1/S (log2) [2] |
| --- | --- | --- |
| MAKDAGLIEANGELKVFIDQNLSPGKGVVSLVAVHPSTVNPLGKQLLPKTFGQSNVNIAQQVVIGTPQRPAASNTLVVGSPHTPSTHFASQNQPSDSSPWSAGKRNRKGEKNGKGLRHFSMKVCEKVQRKGTTSYNEVADELVAEFSAADNHILPNESAYDQKNIRRRVYDALNVLMAMNIISKEKKEIKWIGLPTNSAQECQNLEVERQRRLERIKQKQSQLQELILQQIAFKNLVQRNRHAEQQASRPPPPNSVIHLPFIIVNTSKKTVIDCSISNDKFEYLFNFDNTFEIHDDIEVLKRMGMACGLESGSCSAEDLKMARSLVPKALEPYVTEMAQGTVGGVFITTAGSTSNGTRFSASDLTNGADGMLATSSNGSQYSGSRVETPVSYVGEDDEEDDDFNENDEDD [TFDP1] | -0.176 | 0.136 |
| MDPLRAQQLAAELEVEMMADMYNRMTSACHRKCVPPHYKEAELSKGESVCLDRCVSKYLDIHERMGKKLTELSMQDEELMKRVQQSSGPA [TIMM10] | 0.197 | -0.415 |
| MSYVFVNDSSQTNVPLLQACIDGDFNYSKRLLESGFDPNIRDSRGRTGLHLAAARGNVDICQLLHKFGADLLATDYQGNTALHLCGHVDTIQFLVSNGLKIDICNHQGATPLVLAKRRGVNKDVIRLLESLEEQEVKGFNRGTHSKLETMQTAESESAMESHSLLNPNLQQGEGVLSSFRTTWQEFVEDLGFWRVLLLIFVIALLSLGIAYYVSGVLPFVENQPELVH [ANKRD46] | 0.136 | 0.237 |
| MIATPLKHSRIYLPPEASSQRRNLPMDAIFFDSIPSGTLTPVKDLVKYQNSSLKLNDHKKNQFLKMTTFNNKNIFQSTMLTEATTSNSSLDISAIKPNKDGLKNKANYESPGKIFLRMKEKVLRDKQEQPSRNSSLLEPQKSGNNETFTPNRVEKKKLQHTYLCEEKENNKSFQSDDSSLRASVQGVPLESSNNDIFLPVKQKIQCQQEKKAPLHNLTYELPTLNQEQENFLAVEARNKTLTRAQLAKQIFHSKESIVATTKSKKDTFVLESVDSADEQFQNTNAETLSTNCIPIKNGSLLMVSDSERTTEGTSQQKVKEGNGKTVPGETGLPGSMKDTCKIVLATPRLHITIPRRSKRNISKLSPPRIFQTVTNGLKKNQVVQLQEWMIKSINNNTAICVEGKLIDVTNIYWHSNVIIERIEHNKLRTISGNVYILKGMIDQISMKEAGYPNYLIRKFMFGFPENWKEHIDNFLEQLRAGEKNREKTKQKQKTGRSVRDIRKSMKNDARENQTDTAQRATTTYDFDCDNLELKSNKHSESPGATELNMCHSNCQNKPTLRFPDDQVNNTIQNGGGDDLSNQELIGKKEYKMSSKKLKIGERTNERIIKSQKQETTEELDVSIDILTSREQFFSDEERKYMAINQKKAYILVTPLKSRKVIEQRCMRYNLSAGTIKAVTDFVIPECQKKSPISKSMGTLENTFEGHKSKNKEDCDERDLLTVNRKIKISNLEKEQMLTSDFKKNTRLLPKLKKIENQVAMSFYKHQSSPDLSSEESETEKEIKRKAEVKKTKAGNTKEAVVHLRKSTRNTSNIPVILEPETEESENEFYIKQKKARPSVKETLQKSGVRKEFPITEAVGSDKTNRHPLECLPGLIQDKEWNEKELQKLHCAFASLPKHKPGFWSEVAAAVGSRSPEECQRKYMENPRGKGSQKHVTKKKPANSKGQNGKRGDADQKQTIKITAKVGTLKRKQQMREFLEQLPKDDHDDFFSTTPLQHQRILLPSFQDSEDDDDILPNMDKNPTTPSSVIFPLVKTPQCQHVSPGMLGSINRNDCDKYVFRMQKYHKSNGGIVWGNIKKKLVETDFSTPTPRRKTPFNTDLGENSGIGKLFTNAVESLDEEEKDYYFSNSDSA [MIS18BP1] | 1.22 | -1.77 |
| MAESGGSSGGAGGGGAFGAGPGPERPNSTADKNGALKCTFSAPSHSTSLLQGLATLRAQGQLLDVVLTINREAFPAHKVVLAACSDYFRAMFTGGMREASQDVIELKGVSARGLRHIIDFAYSAEVTLDLDCVQDVLGAAVFLQMLPVVELCEEFLKAAMSVETCLNIGQMATTFSLASLRESVDAFTFRHFLQIAEEEDFLRLPLERLVFFLQSNRLQSCAEIDLFRAAVRWLQHDPARRPRASHVLCHIRFPLMQSSELVDSVQTLDIMVEDVLCRQYLLEAFNYQVLPFRQHEMQSPRTAVRSDVPSLVTFGGTPYTDSDRSVSSKVYQLPEPGARHFRELTEMEVGCSHTCVAVLDNFVYVAGGQHLQYRSGEGAVDACYRYDPHLNRWLRLQAMQESRIQFQLNVLCGMVYATGGRNRAGSLASVERYCPRRNEWGYACSLKRRTWGHAGAASGGRLYISGGYGISVEDKKALHCYDPVADQWEFKAPMSEPRVLHAMVGAGGRIYALGGRMDHVDRCFDVLAVEYYVPETDQWTSVSPMRAGQSEAGCCLLERKIYIVGGYNWRLNNVTGIVQVYNTDTDEWERDLHFPESFAGIACAPVLLPRAGTRR [KLHL26] | -0.0565 | -0.0553 |
| MAGAATGSRTPGRSELVEGCGWRCPEHGDRVAELFCRRCRRCVCALCPVLGAHRGHPVGLALEAAVHVQKLSQECLKQLAIKKQQHIDNITQIEDATEKLKANAESSKTWLKGKFTELRLLLDEEEALAKKFIDKNTQLTLQVYREQADSCREQLDIMNDLSNRVWSISQEPDPVQRLQAYTATEQEMQQQMSLGELCHPVPLSFEPVKSFFKGLVEAVESTLQTPLDIRLKESINCQLSDPSSTKPGTLLKTSPSPERSLLLKYARTPTLDPDTMHARLRLSADRLTVRCGLLGSLGPVPVLRFDALWQVLARDCFATGRHYWEVDVQEAGAGWWVGAAYASLRRRGASAAARLGCNRQSWCLKRYDLEYWAFHDGQRSRLRPRDDLDRLGVFLDYEAGVLAFYDVTGGMSHLHTFRATFQEPLYPALRLWEGAISIPRLP [TRIM14] | -0.0649 | -0.209 |
| NAV2 | 0.109 | -0.147 |
| NBEAL1 | -0.118 | -0.894 |
| MFSRNHRSRVTVARGSALEMEFKRGRFRLSLFSDLPEDTELQRKLDHEIRMREGACKLLAACSQREQALEATKSLLVCNSRILSYMGELQRRKEAQVLGKTSRRPSDSGPPAERSPCRGRVCISDLRIPLMWKDTEYFKNKGDLHRWAVFLLLQLGEHIQDTEMILVDRTLTDISFQSNVLFAEAGPDFELRLELYGACVEEEGALTGGPKRLATKLSSSLGRSSGRRVRASLDSAGGSGSSPILLPTPVVGGPRYHLLAHTTLTLAAVQDGFRTHDLTLASHEENPAWLPLYGSVCCRLAAQPLCMTQPTASGTLRVQQAGEMQNWAQVHGVLKGTNLFCYRQPEDADTGEEPLLTIAVNKETRVRAGELDQALGRPFTLSISNQYGDDEVTHTLQTESREALQSWMEALWQLFFDMSQWKQCCDEIMKIETPAPRKPPQALAKQGSLYHEMAIEPLDDIAAVTDILTQREGARLETPPPWLAMFTDQPALPNPCSPASVAPAPDWTHPLPWGRPRTFSLDAVPPDHSPRARSVAPLPPQRSPRTRGLCSKGQPRTWLQSPV [RTKN] | -0.0634 | 0.208 |
| MPVQAPQWTDFLSCPICTQTFDETIRKPISLGCGHTVCKMCLNKLHRKACPFDQTTINTDIELLPVNSALLQLVGAQVPEQQPITLCSGVEDTKHYEEAKKCVEELALYLKPLSSARGVGLNSTTQSVLSRPMQRKLVTLVHCQLVEEEGRIRAMRAARSLGERTVTELILQHQNPQQLSSNLWAAVRARGCQFLGPAMQEEALKLVLLALEDGSALSRKVLVLFVVQRLEPRFPQASKTSIGHVVQLLYRASCFKVTKRDEDSSLMQLKEEFRTYEALRREHDSQIVQIAMEAGLRIAPDQWSSLLYGDQSHKSHMQSIIDKLQTPASFAQSVQELTIALQRTGDPANLNRLRPHLELLANIDPSPDAPPPTWEQLENGLVAVRTVVHGLVDYIQNHSKKGADQQQPPQHSKYKTYMCRDMKQRGGCPRGASCTFAHSQEELEKFRKMNKRLVPRRPLSASLGQLNEVGLPSAAILPDEGAVDLPSRKPPALPNGIVSTGNTVTQLIPRGTDPSYDSSLKPGKIDHLSSSAPGSPPDLLESVPKSISALPVNPHSIPPRGPADLPPMPVTKPLQMVPRGSQLYPAQQTDVYYQDPRGAAPPFEPAPYQQGMYYTPPPQCVSRFVRPPPSAPEPAPPYLDHYPPYLQERVVNSQYGTQPQQYPPIYPSHYDGRRVYPAPSYTREEIFRESPIPIEIPPAAVPSYVPESRERYQQIESYYPVAPHPTQIRPSYLREPPYSRLPPPPQPHPSLDELHRRRKEIMAQLEERKVISPPPFAPSPTLPPTFHPEEFLDEDLKVAGKYKGNDYSQYSPWSCDTIGSYIGTKDAKPKDVVAAGSVEMMNVESKGMRDQRLDLQRRAAETSDDDLIPFGDRPTVSRFGAISRTSKTIYQGAGPMQAMAPQGAPTKSINISDYSPYGTHGGWGASPYSPHQNIPSQGHFSERERISMSEVASHGKPLPSAEREQLRLELQQLNHQISQQTQLRGLEAVSNRLVLQREANTLAGQSQPPPPPPPKWPGMISSEQLSLELHQVEREIGKRTRELSMENQCSLDMKSKLNTSKQAENGQPEPQNKVPAEDLTLTFSDVPNGSALTQENISLLSNKTSSLNLSEDPEGGGDNNDSQRSGVTPSSAP [RC3H1] | -0.0375 | 0.308 |
| MTSPSPRIQIISTDSAVASPQRIQIVTDQQTGQKIQIVTAVDASGSPKQQFILTSPDGAGTGKVILASPETSSAKQLIFTTSDNLVPGRIQIVTDSASVERLLGKTDVQRPQVVEYCVVCGDKASGRHYGAVSCEGCKGFFKRSVRKNLTYSCRSNQDCIINKHHRNRCQFCRLKKCLEMGMKMESVQSERKPFDVQREKPSNCAASTEKIYIRKDLRSPLIATPTFVADKDGARQTGLLDPGMLVNIQQPLIREDGTVLLATDSKAETSQGALGTLANVVTSLANLSESLNNGDTSEIQPEDQSASEITRAFDTLAKALNTTDSSSSPSLADGIDTSGGGSIHVISRDQSTPIIEVEGPLLSDTHVTFKLTMPSPMPEYLNVHYICESASRLLFLSMHWARSIPAFQALGQDCNTSLVRACWNELFTLGLAQCAQVMSLSTILAAIVNHLQNSIQEDKLSGDRIKQVMEHIWKLQEFCNSMAKLDIDGYEYAYLKAIVLFSPDHPGLTSTSQIEKFQEKAQMELQDYVQKTYSEDTYRLARILVRLPALRLMSSNITEELFFTGLIGNVSIDSIIPYILKMETAEYNGQITGASL [NR2C2] | 0.0297 | -0.109 |
| MSEESDSLRTSPSVASLSENELPPPPEPPGYVCSLTEDLVTKAREELQEKPEWRLRDVQALRDMVRKEYPNLSTSLDDAFLLRFLRARKFDYDRALQLLVNYHSCRRSWPEVFNNLKPSALKDVLASGFLTVLPHTDPRGCHVVCIRPDRWIPSNYPITENIRAIYLTLEKLIQSEETQVNGIVILADYKGVSLSKASHFGPFIAKKVIGILQDGFPIRIKAVHVVNEPRIFKGIFAIIKPFLKEKIANRFFLHGSDLNSLHTNLPRSILPKEYGGTAGELDTATWNAVLLASEDDFVKEFCQPVPACDSILGQTLLPEGLTSDAQCDDSLRAVKSQLYSCY [TTPAL] | -0.0202 | 0.206 |
| MVSDEDELNLLVIVVDANPIWWGKQALKESQFTLSKCIDAVMVLGNSHLFMNRSNKLAVIASHIQESRFLYPGKNGRLGDFFGDPGNPPEFNPSGSKDGKYELLTSANEVIVEEIKDLMTKSDIKGQHTETLLAGSLAKALCYIHRMNKEVKDNQEMKSRILVIKAAEDSALQYMNFMNVIFAAQKQNILIDACVLDSDSGLLQQACDITGGLYLKVPQMPSLLQYLLWVFLPDQDQRSQLILPPPVHVDYRAACFCHRNLIEIGYVCSVCLSIFCNFSPICTTCETAFKISLPPVLKAKKKKLKVSA [GTF2H3] | 0.117 | -0.126 |
